Measured values published in article PMC8079461, “ApoA5 lowers triglyceride levels via suppression of ANGPTL3/8-mediated LPL inhibition” (Journal of Lipid Research, 2021).
Several values for one entry are separate records, joined by “and”; a condition that tells them apart may be missing. Equal values may be shown once.

T1: ANGPTL3/8 complex containing a FLAG-tag sequence at the C terminus of ANGPTL3 (recombinant, human) (human, UniProt Q9Y5C1 17-460; Q6UXH0 22-198)
T1 sequence (looked up) 1: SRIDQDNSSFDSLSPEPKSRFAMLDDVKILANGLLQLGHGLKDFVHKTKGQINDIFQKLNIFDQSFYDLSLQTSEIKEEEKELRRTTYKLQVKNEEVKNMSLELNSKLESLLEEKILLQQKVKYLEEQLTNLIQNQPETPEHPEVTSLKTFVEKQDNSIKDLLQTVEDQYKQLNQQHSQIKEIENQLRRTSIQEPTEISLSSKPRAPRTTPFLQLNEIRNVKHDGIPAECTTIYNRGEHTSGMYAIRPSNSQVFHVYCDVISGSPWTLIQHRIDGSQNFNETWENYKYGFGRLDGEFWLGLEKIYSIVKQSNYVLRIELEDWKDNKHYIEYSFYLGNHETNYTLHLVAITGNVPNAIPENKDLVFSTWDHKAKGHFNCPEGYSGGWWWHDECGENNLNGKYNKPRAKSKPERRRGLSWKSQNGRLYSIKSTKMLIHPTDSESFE
T1 sequence (looked up) 2: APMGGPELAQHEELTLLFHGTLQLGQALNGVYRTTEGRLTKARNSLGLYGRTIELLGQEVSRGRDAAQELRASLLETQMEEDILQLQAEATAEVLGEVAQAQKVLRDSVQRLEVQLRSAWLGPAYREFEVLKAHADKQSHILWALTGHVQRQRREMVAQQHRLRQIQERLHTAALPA

T2: ANGPTL3/8 complex present in human serum (human (endogenous in serum)) (UniProt Q6UXH0)
T2 sequence (Q9Y5C1 17-460, looked up): T1 sequence (looked up) 1
T2 sequence (Q6UXH0 22-198, looked up): T1 sequence (looked up) 2

B1: HSA-ApoA5 (HIS tag-mature HSA-PreScission cleavage site-mature human ApoA5, residues 24-366) (natural protein, UniProt Q6Q788 24-366, looked up)
chain: RKGFWDYFSQTSGDKGRVEQIHQQKMAREPATLKDSLEQDLNNMNKFLEKLRPLSGSEAPRLPQDPVGMRRQLQEELEEVKARLQPYMAEAHELVGWNLEGLRQQLKPYTMDLMEQVALRVQELQEQLRVVGEDTKAQLLGGVDEAWALLQGLQSRVVHHTGRFKELFHPYAESLVSGIGRHVQELHRSVAPHAPASPARLSRCVQVLSRKLTLKAKALHARIQQNLDQLREELSRAFAGTGTEEGAGPDPQMLSEEVRQRLQAFRQDTYLQIAAFTRAIDQETEEVQQQLAPPPPGHSAFAPEFQQTDSGKVLSKLQARLDDLWEDITHSLHDQGHSHLGDP
notes: mature human ApoA5, residues 24-366 of NP_443200.2; Secreted by a mouse IgG kappa signal peptide; source: HEK293, transient transfection, purified from culture media (Ni-NTA, Superdex 200); not shown: His tag, N-terminal, kept; mature human serum albumin (HSA), N-terminal, kept

Assays:
[1] = biological target: ANGPTL8 in human serum (human (endogenous in serum)) (UniProt Q6UXH0); experiment: affinity purification with mass spectrometry; immunoprecipitation with the anti-ANGPTL3/8 antibody from 1 ml pooled human serum (three pools); on-bead Trypsin/Lys-C digest; LC-MRM with 0.25 pmole stable isotope-labeled peptides, two peptides a protein
[2] = biological target: T1, ANGPTL3/8 complex containing a FLAG-tag …; experiment: cell-based or functional assay
[3] = biological target: T2, ANGPTL3/8 complex present in human serum (human (endogenous in serum)); experiment: affinity purification with mass spectrometry; immunoprecipitation with the anti-ANGPTL3/8 antibody from 1 ml pooled human serum (three pools); on-bead Trypsin/Lys-C digest; LC-MRM with 0.25 pmole stable isotope-labeled peptides, two peptides a protein
[4] = biological target: T1, ANGPTL3/8 complex containing a FLAG-tag …; experiment: BLI; Octet RED96e; FLAG-tagged ANGPTL3/8 immobilised by anti-FLAG antibody on streptavidin biosensors; 6.25-100 nM HSA-ApoA5 in solution; background reference subtraction; global fit, 1:1 binding model; settings: both partners purified

Row | Molecule | stoichiometry N [1] | EC50 of HSA-ApoA5 to block the inhibition of LPL activity by 0.3 nM ANGPTL3/8 (human LPL-stable expression cells, EnzChek substrate) [2] [nM] | protein ratio ApoA5/ANGPTL8 in the immunoprecipitate (ApoA5 per ANGPTL3/8 complex) [3] | Kd [4] [nM] | koff [4] [s⁻¹] | kon [4] [M⁻¹ s⁻¹]
1 | ANGPTL3 in human serum (natural protein) | 2.8 and 2.7 | – | – | – | – | –
2 | B1 | – | 21 | 0.5 and 0.53 | 0.52 | 0.000135 | 260000
